Experimental data from the DeepSol protein solubility set.

Assay: soluble on expression in E. coli; label from the status in PepcDB or PDB records

Row | Sequence | soluble on expression in E. coli
1 | MATPDTSAAKMAGQDRQKLKVVAWLQNLVERLKGWTPGHCQKLFDEKELIQLCYRAREVFWKNNVKLELKAPVKICGDLHGQYEDLLALLELNGWPPETKYLFLGDYVDRGPFSIEVISLLFAYQVLHPDKVFLLRGNHESRPVNMQYGFFMECRKRFSNALYDAFQLAFYCMPLCAVVSDKIICMHGGISEDLVDLRQLDKVERPCDVPDIGVIADLTWADPDATIQMYAESQRGAGRVFGAEAVKKFLNTHHLELVVRAHQVVMDGYEFFADRQLVTIFSAPSYCGQMDNAAAVMTVDEELVCSFTVMRPDLKKDKEKKAAVGIVPN | not soluble
2 | MATRLLRTNFIRRSYRLPAFSPVGPPTVTASTAVVPEILSFGQQAPEPPLHHPKPTEQSHDGLDLSDQARLFSSIPTSDLLRSTAVLHAAAIGPMVDLGTWVMSSKLMDASVTRGMVLGLVKSTFYDHFCAGEDADAAAERVRSVYEATGLKGMLVYGVEHADDAVSCDDNMQQFIRTIEAAKSLPTSHFSSVVVKITAICPISLLKRVSDLLRWEYKSPNFKLSWKLKSFPVFSESSPLYHTNSEPEPLTAEEERELEAAHGRIQEICRKCQESNVPLLIDAEDTILQPAIDYMAYSSAIMFNADKDRPIVYNTIQAYLRDAGERLHLAVQNAEKENVPMGFKLVRGAYMSSEASLADSLGCKSPVHDTIQDTHSCYNDCMTFLMEKASNGSGFGVVLATHNADSGRLASRKASDLGIDKQNGKIEFAQLYGMSDALSFGLKRAGFNVSKYMPFGPVATAIPYLLRRAYENRGMMATGAHDRQLMRMELKRRLIAGIA | not soluble
3 | MATSFPVLCLPNKNIRDVLQNMSTCNLIAFSLCSKATKSHVMHLKNDIQQISIKAFLSIDINILSHNQEVTSLVFFKKDYGRWNFESCESVTATETLTPLEPESDRVWVKRGFKLRDWIDHVMEIFNCSRIHEIYISRIGHEEHYISLSNAVKELKTETIFFSFCSDTVVQSVVANVQSNDISFNLSFNIEPSMQKHKVLTRHFERVSFSKDDTREALTLNDLLITNVSQLNISAHHLSFEELNIFIRHLISGSNRRLKIVGIVCAEATRNMQILLKGISHSVYSAELKIVARNENDYQLGDTIYVYQNCGRRLAMQTYLFEGVEKIVMRVY | not soluble
4 | MATSRFQAFLNSPIGPKTTHFWGPIANWGFVAAGLVDMQKPPEMISGNMSSAMCVYSALFMRFAWMVQPRNYLLLACHASNETVQLYQLSRWARAQGYLSSKKEEEKPSQ | not soluble
5 | MATYLIGDVHGCYDELIALLHKVEFTPGKDTLWLTGDLVARGPGSLDVLRYVKSLGDSVRLVLGNHDLHLLAVFAGISRNKPKDRLTPLLEAPDADELLNWLRRQPLLQIDEEKKLVMAHAGITPQWDLQTAKECARDVEAVLSSDSYPFFLDAMYGDMPNNWSPELRGLGRLRFITNAFTRMRFCFPNGQLDMYSKESPEEAPAPLKPWFAIPGPVAEEYSIAFGHWASLEGKGTPEGIYALDTGCCWGGSLTCLRWEDKQYFVQPSNRHKDLGEGEAVAS | soluble
6 | MAVDVPGIISPKTAEAASQLTDGIGGRAYLNSNGAILVTKIQLPSSTQVSNGTAYIYSGFSGGTESDIGFQYSDKYNVWKPYMKVGSKGQDQVQYLEGGSQFTNTKGFRPGSTVQLTIYKNLNGNTRATYWGTNNAGYNGRLISEISKTNVGSISKWKALATVATTGSRQSIKSNFSTSFTNITIDNKAITPVIDTQDFAKVTVSGNSVSLSVVKNLEHHHHHH | soluble
7 | MAVLAALLRSGARSRSPLLRRLVQEIRYVERSYVSKPTLKEVVIVSATRTPIGSFLGSLSLLPATKLGSIAIQGAIEKAGIPKEEVKEAYMGNVLQGGEGQAPTRQAVLGAGCDGGRWDGEHVHVPYVMNRGSTPYGGVKLEDLIVKDGLTDVYNKIHMGSCAENTAKKLNIARNEQDAYAINSYTRSKAAWEAGKFGNEVIPVTVTVKGQPDVVVKEDEEYKRVDFSKVPKLKTVFQKENGTVTAANASTLNDGAAALVLMTADAAKRLNVTPLARIVGKARRGGSHL | not soluble
8 | MAVNVYSTSVTSENLSRHDMLAWVNDSLHLNYTKIEQLCSGAAYCQFMDMLFPGCVHLRKVKFQAKLEHEYIHNFKVLQAAFKKMGVDKIIPVEKLVKGKFQDNFEFIQWFKKFFDANYDGKDYNPLLARQGQDVAPPPNPGDQIF | soluble
9 | MAVPAASSIVSYGGAATSNFLTTPVTPFLAGFYNSNFVTDRINSCAPYRVDRIRKQLQDEEENGYPPADDRRRGALFCRSGTWLEMLPIENPDDGSTRVKVHGTKEESSKFSIVEFVSVAMSLVSIRGVETKNFICMDPSGKLYATPSSNYSTECVFLEEMMENYYNLYASCAYGDRFNPWYIELRRSGKPRRGPNSKKRRKASHFLVVHHDLDRLRSPVPNGNDVTDLVVASLFHQPPSHPLFRQQTVTKPPNPHRISNLRAKVEMTNQAEKQRLLEEKKRRREKKKRRREDRLRKEEQIREARRQELKSLREEELRRRYQQQQQQQASTQTRYNRPQNPANPYPTYRPLPTRSTVQSPRPAYNPYWQSPVTQAPHHNSHHHHHHHPRVSSSSDPQQRHQSQQHYLAQTVSNPNRQNVNYQRYP | not soluble
10 | MAVPGFTFDEALLTEIAASFQLRASNINALTALVQRLSGDFDRSTPQVMNMATGAGKTYVMAAFIEYMRRQGLRNVMIVTPGLVVQTKTVANFTQGSPKFIDGSPVPPRVVTPENYKSNPADQTAFTEQGASNVYVFNVQQLIGPKDMDGDTTSGSKAAVARGVHKFSEYAGVLYDELKNMDDLVVLADEHHLYSAKAKAFHAAIHDLEPAALVGLTASPGEKDETIFTYPLYKAIADKNVKQPVIVYRKDGYGELGEYQQLKDAKTLLETKAGHYAVKNQEEGTSPISPVMLVVCEDIAHATRIEETLVGPDLFGDPYAVLRVDSDSMNEEKAALLDAIDTPDSPVRAVVSVNKLKEGWDCRSIAVMVTLRAMDSDILTQQTLGRGLRLPYGKYAEVEAIDTLDIVAHESFQRLLSSEKVNKSFGFDKRKTSQPAPPQPVHPMDVTPPTPVPTPDLDPVPGGNTTAPTPVLPPADPQPVAPDLDKGTDTRPPLGLKELGGDGASPEDLYPEPTPLAVVELVEKFRDVSFLFPRTTYTAKNAAYPLEKLMQDEIIQVARQITDNPQAVLERLALAGDEAQGRVMAKRLTQGTIDAIALDEDAVKKQLVGAIITHRRVERSPENISQAKNRIAPLIYNNALATTWTVDTLHVASILLGKAIDASVRQFLANLEPDVTLVPLTMPTRTRFELGVGKTIEPRPGEFDKYINGQFYSGWTRNLYTAASFDSNSAEHKLACDLDVSPDVEWWTRLYMADGASIDYQVGKTYYPDFVVRDREGRTWIVEGKDAGGRTNEEVKAKRDAAELALNLMASNEDMGALKVGYIIAYEDTIKEAGSWSRLISMSGAVKSAN | not soluble
11 | MAVTREDLEQNRLRAALGDSPVASTLLTEAALEASLASTLARLSAAPCEGQDAWVFGYGSLIWNPMIFHTEVARATVRGYHRGFYLYSRINRGTWDNPGLVLGLDRGGSCSGVAFRVPRAHAEREFRVLWRREMLTGAYLPRWLPTEIHGERILALAFVMNRTHEAYAGRLPDERVVGCLHKAVGLYGPAREYLQRTLIGLASNGLHDPYLDRLWQRLQAMDINAANAPSQTADTDGTGPLPDPYLSALEHHHHHH | not soluble
12 | MAVVAHTEEDVKLLARLMRAEAEGDGRLGMLMVGNVGVNRVIADCLDFRGIRSIRQMVFQSPGGFEAVQKGYFYQRAREVDIGLARQVLRGWRYHPATNALWFFKPPEGQECPPQWFNQWNVGRYKSHCFFAPTPSDCPRVY | not soluble
13 | MAWLRFFSRTLKSLPQISSSSPNPNPNFRTSPFSTSFLITKTPDKLKKKRKKPESARTKSIQHESTKLPHLESLVSRDAHFRFLIRSKEFISKQPERILRLDDAGKLYRELGFPRGRKVTKFIPKHPLIFQTYRHSDGKIWLGFTEFMEDLLDEEKGLMESMELDRVNCVRKLLMMTKDKRILLSKIHHTRLLFGIPEDFRDRVAKYPDYFRVVTGGDGNRVLELVNWDTNLAHGKELELEEKDTRKLNLLNTFPLVSPYSDGWKLDVWSLEAEKYRVGIVHEFLNLTLEKRASIHHIVEFKDEFSLTRQTYQMLKKQSMSFYLAGTEMNWTVFLKDAYDENGVLVSKDPQVVFNEKLYKYADMQQMEQVG | soluble
14 | MAYSEKVIDHYENPRNVGKLDAADPNVGTGMVGAPACGDVMRLQIKVNEQGVIEDAKFKTYGCGSAIASSSLATEWMKGKTLDEAETIKNTTIAEELALPPVKIHCSVLAEDAIKAAVRDYKQKKGLL | not soluble
